The source of these data is patent publication US20250282879A1 (CILAG GMBH INTERNATIONAL, published 2025).

Usually Kd stands for a measure of binding affinity in units of concentration. For orientation: koff means the first-order rate constant of dissociation. By kon is commonly meant a measure of how fast the partners come together. Usually EC50 stands for the midpoint of the concentration-response curve.

Residue numbers refer to the chain shown, from its start. Names may count otherwise.

Test [1] concerns the target T1, recombinant human IL-31 protein (Peprotech) (human, UniProt Q6EBC2 24-164).
T1 construct: also called hIL-31
T1 sequence (looked up): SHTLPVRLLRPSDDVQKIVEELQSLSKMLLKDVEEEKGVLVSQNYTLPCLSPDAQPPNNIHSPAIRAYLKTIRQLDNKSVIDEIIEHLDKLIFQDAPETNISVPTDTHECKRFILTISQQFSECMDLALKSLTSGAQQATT
The experiment in a line: SPR, Morrison captured on immobilized human IL-4R-Fc, IL-31 analyte, single-cycle. Here is the method: (§1) Binding kinetics (including affinity) of the bispecific Morrison-H (PRO2198, PRO2199) and Morrison-L (PRO2206, PRO2207) molecules to recombinant human IL-31 protein (Peprotech) were determined by SPR analysis on a T200 device (Biacore, Cytiva). In this SPR experiment, Morrison antibodies were injected over a carboxylmethylated dextran surface (CM5 sensorchip; Biacore, Cytiva) immobilized with human recombinant IL-4R protein (ECD with Fc Tag, R&D Systems) and a titration series of human IL-31 was injected as analyte. […] The calculation of the kinetics and the apparent dissociation equilibrium constant (KD) as well as the measurement for the quality of curve fitting were done as described above for IL-4R. The binding level was calculated as the maximum stability binding achieved normalized to the theoretical Rmax. Cross-reactivity to cynomolgus monkey IL-31 was measured using the same setup as for the analysis of human IL-31 affinities, with the difference that recombinant cynomolgus monkey IL-31 (ECD with His Tag, Sino Biological) protein was used as analytes instead of human IL-31.
(§2) After having shown a stable capture of Morrison antibodies via recombinant human IL-4R protein, IL-31 was injected as analyte and the kinetics of the binding of IL-31 to captured Morrison molecules were calculated.
(In SPR one partner is held on a chip, and binding of the other changes the refractive index at the surface.)

Test [2] has as its target T2, recombinant cynomolgus monkey IL-31 (ECD with His Tag, Sino Biological) (cynomolgus monkey).
T2 construct: manufactured on demand by Sino Biological; also called cynomolgus IL-31-His; cyno IL-31
The description is as above. Here is the method: as §1, §2

The target of test [3] is T1, recombinant human IL-31 protein …. Briefly: cell-based or functional assay.
In test [4] the target is T3, recombinant human IL-4R protein (ECD with His Tag, Sino Biological) (human, UniProt P24394 26-232).
T3 construct: extracellular domain; bought; also called human IL-4R ECD; not shown: His Tag
The experiment in a line: SPR, Morrison captured via anti-human IgG-Fc, IL-4R ECD-His analyte. On the procedure:
(§3) Binding kinetics (including affinity) of the bispecific Morrison-H (PRO2198, PRO2199) and Morrison-L (PRO2206, PRO2207) molecules to recombinant human IL-4R protein (ECD with His Tag, Sino Biological) were determined by SPR analysis on a T200 device (Biacore, Cytiva). In this SPR experiment, Morrison molecules were captured via an anti-human IgG-Fc antibody (Human Antibody Capture Kit; Biacore, Cytiva) covalently immobilized to a carboxylmethylated dextran surface (CM5 sensorchip; Biacore, Cytiva) and a titration series of human IL-4R ECD was injected as analyte. After each analyte injection cycle, the sensor chip was regenerated (MgCl₂), and new Morrison antibody was subsequently re-captured. […] The apparent dissociation (kd) and association (kₐ) rate constants and the apparent dissociation equilibrium constant (KD) were calculated with the Biacore analysis software (Biacore Evaluation software Version 3.2, Cytiva) using one-to-one Langmuir binding model and quality of the fits was monitored based on Chi2 and U-value, which are measures for the quality of the curve fitting. The binding level was calculated as the maximum stability binding achieved normalized to the theoretical Rmax. Cross-reactivity to cynomolgus monkey IL-4R was measured using the same setup as for the analysis of human IL-4R kinetics, with the difference that recombinant cynomolgus monkey IL-4R (ECD with His-tag, Acro Biosystems) protein was used as analyte instead of human IL-4R.

In test [5] the target is T4, recombinant cynomolgus monkey IL-4R (ECD with His-tag, Acro Biosystems) (cynomolgus monkey, UniProt A0A2K5V556 26-232).
T4 construct: bought; also called cynomolgus IL-4R
T4 sequence (A0A2K5V556 entry or part of it limits assumed): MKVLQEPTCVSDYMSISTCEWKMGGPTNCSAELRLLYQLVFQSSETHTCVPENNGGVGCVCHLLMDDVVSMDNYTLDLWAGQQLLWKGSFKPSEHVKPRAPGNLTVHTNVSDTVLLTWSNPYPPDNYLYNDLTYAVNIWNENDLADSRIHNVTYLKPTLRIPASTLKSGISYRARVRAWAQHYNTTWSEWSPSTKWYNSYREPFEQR
The test is described as above. Here is the method:
as §3

Test [6] deals with T5, human IL-4R on cells (HEK-Blue IL-4/IL-13 cells, human PBMC, human whole blood) (human, UniProt P24394 26-825). Briefly: cell-based or functional assay.
Test [7] addresses T6, cynomolgus IL-4R on transfected HEK293T cells (cynomolgus monkey, UniProt A0A2K5V580 33-832).
T6 construct: whole, on cells; also called cynomolgus IL-4R-expressing HEK293T cells; not shown: V5 Tag fused to the N-terminus of the expression construct
The experiment in a line: flow cytometry, transfected HEK293T cells. The text has this: (§4) To test binding of the Morrison-H and Morrison-L antibodies PRO2198, PRO2199, PRO2206 and PRO2207 to human or cynomolgus IL-4R-expressing HEK293T cells, HEK293T cells were transfected with human and cynomolgus IL-4R plasmids and mock plasmid using Lipofectamine3000. Binding of an antibody targeting V5 Tag, which is fused to the N-terminus of human and cynomolgus IL-4R expression constructs, would confirm successful expression of both targets and was thus used as a positive control for plasma membranous binding. The Morrison-H molecule PRO2077 was used as negative control for cynomolgus IL-4R binding since this molecule had not shown any cross-reactivity to cynomolgus IL-4R (see section 5.3.).
(§5) 50,000 transfected HEK293T cells per well were seeded in a 96-well plate. 5-fold serial dilutions of the Morrison-H and Morrison-L antibodies PRO2198, PRO2199, PRO2206 and PRO2207 and of the control molecule PRO2077, which is not cross-reactive to cynomolgus IL-4R, were added at concentrations ranging from 5,000 to 0.32 ng/ml to the plates and incubated for 60 min at 4° C. on a shaker. Supernatants were removed and detection reagent was added for flow cytometry analysis. The geometric mean of the APC fluorescence intensity of single cells was calculated.

Test [8] deals with T7, human IL-4R on transfected HEK293T cells (human, UniProt P24394 26-825).
T7 construct: whole, on cells; also called human IL-4R-expressing HEK293T cells; not shown: V5 Tag fused to the N-terminus of the expression construct
Briefly: flow cytometry, transfected HEK293T cells.
Excerpt: as §4, §5
On the technique in general: Flow cytometry measures light scatter and fluorescence of single cells or particles in a stream.

The target in test [9] is T5, human IL-4R on cells (HEK-Blue …). Briefly: cell-based or functional assay. The source holds these as a separate data set.
The target is the same in test [10]. The experiment in a line: cell-based or functional assay. The source holds these as a separate data set.
The target of another test is T8, human IL-31-His (human, UniProt Q6EBC2 24-164).
T8 construct: captured via an anti-His tag antibody; also called human IL-31 (scFv SPR); not shown: His tag
T8 sequence (looked up): T1 sequence (looked up)
Briefly: SPR, IL-31-His captured, scFv analyte (30 and 10 nM). Here is the method:
Affinity of the two humanized scFvs to human and cynomolgus IL-31 was determined by SPR analysis on a T200 device (Biacore, GE Healthcare). Cynomolgus IL-31 was manufactured on demand by Sino Biological since it was not available commercially. Human and cynomolgus IL-31-His was captured via an anti-His tag antibody coupled to a carboxylmethylated dextran surface and the scFvs were injected as analyte. After each analyte injection cycle the sensor chip was regenerated and new antigen was captured. The scFvs were measured using a dose response multi-cycle kinetic assay in a high-throughput mode with two concentrations (30 and 10 nM) diluted in running buffer. Obtained sensorgrams were fitted using a 1:1 binding model.
Affinity of PRO1643 and of the optimized anti-IL-31 scFvs to human IL-31 was determined by SPR analysis on a T200 device (Biacore, GE Healthcare), as described above in section 2.2.2. The scFvs were measured using a dose response multi-cycle kinetic assay in a high-throughput mode with two concentrations (30 and 10 nM) diluted in running buffer. Obtained sensorgrams were fitted using a 1:1 binding model.

T6 sequence (A0A2K5V580 entry or part of it): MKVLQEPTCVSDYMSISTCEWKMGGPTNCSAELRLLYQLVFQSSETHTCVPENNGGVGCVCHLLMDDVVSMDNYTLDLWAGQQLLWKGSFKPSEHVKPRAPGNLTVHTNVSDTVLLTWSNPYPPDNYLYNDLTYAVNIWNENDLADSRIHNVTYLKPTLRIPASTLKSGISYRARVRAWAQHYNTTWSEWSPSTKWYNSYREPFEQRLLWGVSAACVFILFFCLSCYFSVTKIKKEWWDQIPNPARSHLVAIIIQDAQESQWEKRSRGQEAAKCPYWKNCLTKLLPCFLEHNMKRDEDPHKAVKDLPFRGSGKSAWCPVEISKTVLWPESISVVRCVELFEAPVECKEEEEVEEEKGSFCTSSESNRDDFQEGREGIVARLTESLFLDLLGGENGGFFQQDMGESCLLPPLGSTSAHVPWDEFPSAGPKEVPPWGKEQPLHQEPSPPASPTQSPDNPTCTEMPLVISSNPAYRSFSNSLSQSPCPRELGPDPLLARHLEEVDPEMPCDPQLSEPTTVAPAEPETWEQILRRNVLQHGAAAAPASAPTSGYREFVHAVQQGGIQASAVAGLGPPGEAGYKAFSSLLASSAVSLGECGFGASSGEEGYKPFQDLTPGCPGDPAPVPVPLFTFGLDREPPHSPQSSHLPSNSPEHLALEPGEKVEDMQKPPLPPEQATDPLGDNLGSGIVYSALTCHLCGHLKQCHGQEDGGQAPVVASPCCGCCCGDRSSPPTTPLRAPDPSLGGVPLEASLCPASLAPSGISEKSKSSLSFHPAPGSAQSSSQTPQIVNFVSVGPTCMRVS

B1: PRO2206 (bispecific antibody, human IgG4 S228P, kappa)
light: DIQMTQSPSSLSARVGDRVTITCQASEDIESYLAWYQQKPGKAPKLLIYRASTLAYGVPSRFSGSGSGRDFTLTISSLQPEDFATYYCLGSSYSTGSNIFGQGTKVEIKRTVAAPSVFIFPPSDEQLKSGTASVVCLLNNFYPREAKVQWKVDNALQSGNSQESVTEQDSKDSTYSLSSTLTLSKADYEKHKVYACEVTHQGLSSPVTKSFNRGECGGGGSGGGGSAFQLTQSPSSLSASVGDRVTITCQASQSIDSWLAWYQQKPGKPPKLLIYQASKLASGVPSRFSGSGSGTDYTLTISSLQPEDFATYYCQTYYGGGHIGWGFGTGTKVTVLGGGGGSGGGGSGGGGSGGGGSQSQLVESGGGRVQPGGSLRLSCAASGFSFSANYWICWVRQAPGKGLEWIVCIYIGSRADTYYAPWAKGRFTISKDNSKNTVYLQMNSLRAEDTATYFCARFSSGIYDLDRFFLWGQGTQVTVSS
heavy: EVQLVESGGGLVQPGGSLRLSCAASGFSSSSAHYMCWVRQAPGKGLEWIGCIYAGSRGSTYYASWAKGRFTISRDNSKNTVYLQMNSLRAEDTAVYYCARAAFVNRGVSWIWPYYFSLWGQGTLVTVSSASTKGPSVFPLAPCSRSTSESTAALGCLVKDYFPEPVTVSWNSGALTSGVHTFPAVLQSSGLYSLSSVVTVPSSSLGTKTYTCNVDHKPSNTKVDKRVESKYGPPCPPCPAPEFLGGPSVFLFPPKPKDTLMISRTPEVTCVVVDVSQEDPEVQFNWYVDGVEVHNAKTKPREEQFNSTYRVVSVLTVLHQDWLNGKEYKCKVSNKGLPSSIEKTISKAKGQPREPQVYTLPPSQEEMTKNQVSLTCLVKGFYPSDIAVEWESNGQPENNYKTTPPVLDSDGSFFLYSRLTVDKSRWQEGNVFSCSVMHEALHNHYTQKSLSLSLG
notes: IgG4 (S228P) Morrison-L, anti-IL-31 scFv on the C-terminus of the light chain; also called Morrison-L; MorrL
Consider B1, for which, in test [1], the dissociation constant Kd was 0.107 nM, the koff was 2.36e-05 s⁻¹ and the kon turned out to be 220000 M⁻¹ s⁻¹. Moreover, in test [2], the Kd amounted to 0.169 nM, the koff is below 1e-05 s⁻¹ and the on-rate (kon) turned out to be 59300 M⁻¹ s⁻¹. In addition, the “IC50 (single analysis), human IL-31-induced signaling, IL-31RA/OSMR dimerization assay” value in test [3] came to 0.23 nM. For the same molecule, in test [4], the dissociation constant (Kd) came out at 0.0477 nM, the off-rate (koff) amounted to 1.95e-05 s⁻¹ and the on-rate (kon) was 409000 M⁻¹ s⁻¹. For the same molecule, in test [5], the dissociation constant (Kd) was found to be 0.209 nM, the off-rate (koff) was found to be 2.42e-05 s⁻¹ and the on-rate constant (kon) is 116000 M⁻¹ s⁻¹. Moreover, in [6], the “IC50 (single analysis), human IL-4-induced signaling, stat-6 reporter gene assay” value came to 0.0118 nM. For the same molecule, the concentration for a half-maximal effect (EC50) in test [7] is 0.9 nM. In [8], the response was half-maximal at 0.83 nM (EC50). Further, in [9], the “IC50, IL-4-induced CD23 expression, memory B cells” value stood at 4.34 nM; the “IC50, IL-4-induced CD23 expression, monocytes (blood donor 2)” value came out at 0.111 nM; the “IC50, IL-4-induced CD23 expression, naive B cells” value is 1.48 nM. In test [10], the “IC50 (single analysis), human IL-13-induced signaling, stat-6 reporter gene assay” value is 0.0295 nM.

B2: PRO2207 (bispecific antibody, human IgG4 S228P, kappa)
light: B1 light with R14S, R69T
heavy: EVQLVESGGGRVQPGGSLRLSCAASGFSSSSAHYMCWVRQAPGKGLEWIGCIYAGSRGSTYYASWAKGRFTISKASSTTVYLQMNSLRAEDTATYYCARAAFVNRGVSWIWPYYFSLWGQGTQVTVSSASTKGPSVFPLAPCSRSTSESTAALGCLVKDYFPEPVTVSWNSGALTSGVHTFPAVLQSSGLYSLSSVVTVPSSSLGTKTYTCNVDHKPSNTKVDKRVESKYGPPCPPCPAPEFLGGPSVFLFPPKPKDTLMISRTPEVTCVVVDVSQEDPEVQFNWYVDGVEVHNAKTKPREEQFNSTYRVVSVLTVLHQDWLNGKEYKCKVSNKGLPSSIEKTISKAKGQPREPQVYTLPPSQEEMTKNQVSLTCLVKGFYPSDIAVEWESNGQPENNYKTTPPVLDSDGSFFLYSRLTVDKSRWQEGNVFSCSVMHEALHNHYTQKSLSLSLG
notes: IgG4 (S228P) Morrison-L; also called Morrison-L; MorrL
With B2, the equilibrium dissociation constant (Kd) in test [1] was 0.152 nM; in [2] it was 0.164 nM; in [4] it was 0.189 nM; in test [5] it was 0.011 nM. In addition, the off-rate constant (koff) in test [1] was 2.47e-05 s⁻¹; in test [2], below 1e-05 s⁻¹; in [4], 4.61e-05 s⁻¹; in [5], 2.77e-05 s⁻¹. Further, the kon came to 163000 M⁻¹ s⁻¹ in test [1], 60900 M⁻¹ s⁻¹ in [2], 244000 M⁻¹ s⁻¹ in test [4] and 2.53e+06 M⁻¹ s⁻¹ in test [5]. Further, the “IC50 (single analysis), human IL-31-induced signaling, IL-31RA/OSMR dimerization assay” value in [3] is 0.215 nM. In addition, the “IC50 (single analysis), human IL-4-induced signaling, stat-6 reporter gene assay” value in [6] was found to be 0.0094 nM. Besides, the half-maximal effective concentration (EC50) in test [7] amounted to 0.65 nM; in test [8], 0.6 nM. Further, in [9], the “IC50, IL-4-induced CD23 expression, memory B cells” value is 1.58 nM. The “IC50, IL-4-induced CD23 expression, monocytes (blood donor 3)” value in [9] is around 0.0545 nM. For the same molecule, in test [9], the “IC50, IL-4-induced CD23 expression, naive B cells” value amounted to 1.04 nM. In test [10], the “IC50 (single analysis), human IL-13-induced signaling, stat-6 reporter gene assay” value came to 0.0126 nM.

B3: PRO1900 (scFv, V domains shown)
VH: QSQLVESGGGRVQPGGSLRLSCAASGFSFSANYWICWVRQAPGKGLEWIVCIYIGSRADTYYAPWAKGRFTISKDNSKNTVYLQMNSLRAEDTATYFCARFSSGIYDLDRFFLWGQGTQVTVSS
V domain: AFQLTQSPSSLSASVGDRVTITCQASQSIDSWLAWYQQKPGKPPKLLIYQASKLASGVPSRFSGSGSGTDYTLTISSLQPEDFATYYCQTYYGGGHIGWGFGTGTKVTV
notes: anti-IL-31 scFv; VL entry ends with LCDR3 (no FR4); also called 50-09-D07-sc04
In the test with human IL-31-His, B3 displayed an equilibrium dissociation constant (Kd) of 0.907 nM, an off-rate (koff) of 0.000599 s⁻¹ and a kon of 661000 M⁻¹ s⁻¹.

B4: PRO1903 (scFv, V domains shown)
VH: B3 VH with R11L, T95V, Q119L
V domain: B3 V domain with D30E
notes: anti-IL-31 scFv (VL D32E against sc03); Printed VL entry has no FR4; also called 50-09-D07-sc07
In the test with human IL-31-His, B4 had a Kd of 1.22 nM, a koff of 0.000638 s⁻¹ and an on-rate constant (kon) of 524000 M⁻¹ s⁻¹.
